Results: US20250057950A1 (ORICELL THERAPEUTICS, published 2025)
Blank lines part the entries; values can stand above or below the binder they belong to.

Tests used:
[1] = molecular target: T1, human G protein-coupled receptor class C group 5 member D (GPRC5D) protein (human, UniProt Q9NZD1 1-345); assay: flow cytometry (FACS) on MM1S myeloma cells
T1 construct: whole, on cells; The same protein on several cell lines; also called HuGPRC5D; CHO-GPRC5D
Description: The target cells (i.e., MM1S myeloma cells) were formulated with buffer to a concentration of 1×10⁶ cells/mL, and added into a 96-well sharp-bottom plate (corning 3894) with 30 μL in each well. The antibody to be detected was formulated with buffer to a concentration of 10 μg/mL, and subject to 3-fold dilution to form a gradient of 8 concentrations. The formulated antibodies of different concentrations were mixed well with the plated target cells at 30 μL/well, and incubated in a refrigerator at 4° C. for 1 hr. 150 μL of buffer was added into each well, and centrifuged at 300 g for 5 min. The supernatant was discarded, and then the cells were loosened up by shaking, and additionally washed once. The fluorescent secondary antibody (ab98593) was formulated with buffer at a ratio of 1:200, added into each well in an amount of 30 μl and mixed with the cells uniformly, and incubated in the refrigerator at 4° C. for 30 min. 150 μL of buffer was added to each well, and centrifuged at 300 g for 5 min. The supernatant was discarded, and then the cells were loosened up by shaking, and additionally washed once. 35 μL of buffer was added into each well, mixed well, and the mixture was measured by a flow cytometer. Of those, ET150-5scFv is a positive control antibody with the sequence found in the patent application CN107428829A, 3B5VHH has an amino acid sequence as set forth in SEQ ID NO: 15, 3E7VHH has an amino acid sequence as set forth in SEQ ID NO: 19, 4A2VHH has an amino acid sequence as set forth in SEQ ID NO: 24, and 4B3VHH has an amino acid sequence as set forth in SEQ ID NO: 30.

[2] = molecular target: T1, human G protein-coupled receptor class …; assay: flow cytometry (FACS) on K562-GPRC5D cells
[3] = molecular target: T1, human G protein-coupled receptor class …; assay: flow cytometry (FACS) on CHO-GPRC5D cells
[4] = molecular target: T2, N-terminal peptide of human GPRC5D (1-27), biotin-labelled (human, labeled with biotin (EZ-Link Sulfo-NHS-LC-Biotin)); assay: BLI (Octet RED384), biotinylated peptide on SA sensor, antibody in solution
T2 construct: Immobilised on an SA sensor at 20 nM; also called N-terminal peptide (Biotin) of GPRC5D
T2 peptide: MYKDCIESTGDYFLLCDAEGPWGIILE
Source text: (§1) The G5VHH1 and G5VHH2 antibody sequences were cloned into an eukaryotic vector containing p3.4-hIgG1Fc of a human IgG1 Fc fragment (hIgG1Fc) sequence, facilitating the recombinant expression of GPRC5D VHH-hIgG1Fc to give a recombinant protein which was then purified to determine the affinity of G5VHH1-hIgG1Fc and G5VHH2-hIgG1Fc to the affinity N-terminal peptide (Biotin) of GPRC5D. Briefly, the N-terminal peptide of human GPRC5D (>sp|Q9NZD1|1-27: […]) protein was labeled with biotin (EZ-Link Sulfo-NHS-LC-Biotin, Pierce, 21327). By the biolayer interferometry (BLI) technique, the binding kinetics between antigen and antibody was analyzed using the molecular interaction analyzer fortebiooctetRED384 (PALL) (wherein both antigen and antibody were diluted with a PBS buffer containing 0.1% BSA and 0.02% Tween 20). The biotin-conjugated antigen with a concentration of 20 nM was immobilized to an SA sensor, and bound for 3 min; then bound with double-diluted antibody solution (G5VHH1 and G5VHH2 antibodies) for 5 min; and finally dissociated for 5 min. The obtained results were analyzed by Octet Data Analysis 9.0 software (fortebio) to calculate the binding strength between the antigen and the antibody, thereby giving the KD value, Ka (1/Ms) value and Kd (1/s) value. […]

[5] = molecular target: T1, human G protein-coupled receptor class …; assay: flow cytometry on GPRC5D-CHO cells, anti-human IgG Fc secondary antibody
Description: CHO-GPRC5D target cells were formulated with PBS buffer to a concentration of 1×10⁶ cells/mL, and added into a 96-well sharp-bottom plate (corning 3894) with 30 μL in each well. The antibodies to be detected, G5VHH1-hIgG1Fc and G5VHH2-hIgG1Fc were formulated with PBS buffer to a concentration of 30 μg/mL, and subject to 3-fold dilution to form a gradient of 8 concentrations (with the minimum concentration of 0). The formulated antibodies with different concentrations were mixed well with the plated target cells at 30 μL/well, and incubated in a refrigerator at 4° C. for 1 hr. 150 μL of buffer was added into each well, and centrifuged at 300 g for 5 min. The supernatant was then discarded, and the cells were additionally washed once. Goat-anti-human IgG (Fc-specific, ab98593) fluorescent secondary antibody was formulated with buffer at a ratio of 1:200, added into each well in an amount of 30 μl and mixed with the cells uniformly, and incubated in the refrigerator at 4° C. for 30 min. 170 μL of buffer was added to each well, and centrifuged at 300 g for 5 min. The supernatant was then discarded and the cells were additionally washed once. 35 μL of buffer was added into each well, mixed well, and the mixture was detected by iQue Screener Flow Cytometer (available from IntelliCyt Company). […]

[6] = molecular target: T2, N-terminal peptide of human GPRC5D …; assay: BLI (Octet RED384), biotinylated peptide on SA sensor; fit R2 0.7914, model called not credible
Source text: as §1

[7] = molecular target: human G protein-coupled receptor class C group 5 member D (GPRC5D) protein (human) (UniProt Q9NZD1); assay: flow cytometry (FACS) on MM1S myeloma cells
[8] = molecular target: human G protein-coupled receptor class C group 5 member D (GPRC5D) protein (human) (UniProt Q9NZD1); assay: flow cytometry (FACS) on K562-GPRC5D cells
[9] = molecular target: human G protein-coupled receptor class C group 5 member D (GPRC5D) protein (human) (UniProt Q9NZD1); assay: flow cytometry (FACS) on CHO-GPRC5D cells

T1 sequence (Q9NZD1 whole entry): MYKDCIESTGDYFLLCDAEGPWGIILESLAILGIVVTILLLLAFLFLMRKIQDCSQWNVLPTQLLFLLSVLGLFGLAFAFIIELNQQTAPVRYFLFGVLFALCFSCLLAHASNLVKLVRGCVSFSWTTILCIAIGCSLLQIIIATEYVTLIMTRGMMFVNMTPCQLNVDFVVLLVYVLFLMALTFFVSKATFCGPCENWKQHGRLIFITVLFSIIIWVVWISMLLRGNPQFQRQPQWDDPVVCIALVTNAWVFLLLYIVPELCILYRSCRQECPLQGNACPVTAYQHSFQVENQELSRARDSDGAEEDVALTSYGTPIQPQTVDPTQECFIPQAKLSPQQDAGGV

B2: 3B5 VHH (VHH)
VHH: EVQLVESGGGLVQPGGSLRLSCAASGFIFSRYGMGWFRQAPGKGRELVAAINWSDGTTYYPDSVEGRFTISRDNAKRMVYLQMNSLRAEDTAVYYCAADRRLRSQTGYDYWGQGTQVTVSS
notes: From the synthetic nanobody library NanoOri_1.0 (Caplacizumab backbone)
EC50 [1]: 0.0439 mg/L
EC50 [2]: 0.207 mg/L
EC50 [3]: 0.103 mg/L

B5: G5VHH1-hIgG1Fc (Fc fusion)
chain: EVQLVESGGGLVQPGGSLRLSCAASGRIFSRDAMGWFRQAPGKGRELVAAINSSGGNTYYPDSVEGRFTISRDNAKRMVYLQMNSLRAEDTAVYYCAARGVRWTSTTAYGYNYWGQGTQVTVSS
notes: also called G5VHH1 antibody; not shown: human IgG1 Fc fragment (hIgG1Fc) of vector p3.4-hIgG1Fc
EC50 (read off the curve) [5]: ~1 mg/L
binding result [6]: no binding

B6: 3E7 VHH (VHH)
VHH: B5 chain
notes: also called G5VHH1
EC50 [1]: 0.286 mg/L
EC50 [2]: 0.576 mg/L
EC50 [3]: 0.426 mg/L

B7: ET150-5 scFv (scFv, from another filing)
scFv: QSVLTQPPSASGTPGQRVTISCSGSRSNVGGNYVFWYQQVPGATPKLLIYRSNQRPSGVPDRFAGSKSGSSASLAISGLRSEDEADYYCATWDDSLSGFVFGTGTKVTVLGSRGGGGSGGGGSGGGGSLEMAEVQLVESGGGLVKPGGSLRLSCAASGFTFSDYYMSWIRQAPGKGLEWVSYISSSGSTIYYADSVKGRFTISRDNAKNSLYLQMNSLRAEDTAVYYCARGYGKAYDQWGQGTLVTVSS
EC50 [7]: 0.911 mg/L
EC50 [8]: 0.431 mg/L
EC50 [9]: 0.249 mg/L

The remaining lines, values ahead:

EC50 [1]: 0.0195 mg/L
EC50 [2]: 0.164 mg/L
EC50 [3]: 0.0687 mg/L
B1: 4A2 VHH (VHH)
VHH: EVQLVESGGGLVQPGGSLRLSCAASGFIFSRYDMGWFRQAPGKGRELVAVITWGGGSTYYPDSVEGRFTISRDNAKRMVYLQMNSLRAEDTAVYYCAARSASAYRTGRLEYNYWGQGTQVTVSS

Kd [4]: 0.0769 µM
EC50 (read off the curve) [5]: ~0.4 mg/L
B3: G5VHH2-hIgG1Fc (Fc fusion)
chain: EVQLVESGGGLVQPGGSLRLSCAASGLIFSRYVMGWFRQAPGKGRELVAFINSSGGSTNYPDSVEGRFTISRDNAKRMVYLQMNSLRAEDTAVYYCAASSRTSTTRGYNYWGQGTQVTVSS
notes: also called G5VHH2 antibody; not shown: human IgG1 Fc fragment (hIgG1Fc) of vector p3.4-hIgG1Fc

EC50 [1]: 0.658 mg/L
EC50 [2]: 0.216 mg/L
EC50 [3]: 0.18 mg/L
B4: 4B3 VHH (VHH)
VHH: B3 chain
notes: also called G5VHH2
